Results from patent US20220143196A1 (ARIZONA BOARD OF REGENTS ON BEHALF OF THE UNIVERSITY OF …, published 2022).

How the values were obtained:
[1] = biological target: T1, human melanocortin 1 receptor (MC1R) (human, UniProt Q01726 1-317); test: competitive binding vs 125I-NDP-α-MSH on whole HEK293 cells overexpressing human MC1R
T1 construct: whole, on cells; also called MC1 receptor
Experimental: (§1) Competitive binding assays were performed on whole cells. Stably transfected HEK293 cell lines overexpressing human MC1R, MC3R, MC4R or MC5R were seeded on 96-well plates 48 h before the assay and grown to 100,000 cells per well. For the assay, the medium was removed, and cells were washed twice with a binding buffer containing minimum essential medium with Earle's salt (MEM, GIBCO), 25 mM HEPES (pH 7.4), 0.2% bovine serum albumin, 1 mM 1,10-phenanthrolone, 0.5 mg/L leupeptin and 200 mg/L bacitracin. […] The medium was subsequently removed, and the cells were washed twice with the binding buffer. The cells were lysed by 50 μL of 0.1 mM NaOH and 50 μL of 1% Triton X-100. The plates were left dry overnight under the hood, and 50 μL of scintillation fluid (OptiPhase SuperMix, PerkinElmer) were added in each well. The radioactivity was measured using MicroBeta 2 microplate counter (PerkinElmer). Data were analyzed using Graphpad Prism 6 (Graphpad Software, San Diego, Calif.).

human MC4R = biological target: T2, human MC4R (human, UniProt P32245 1-332); test: competitive binding vs 125I-NDP-α-MSH on whole HEK293 cells overexpressing human MC4R
T2 construct: whole, on cells
T2 sequence (P32245 whole entry): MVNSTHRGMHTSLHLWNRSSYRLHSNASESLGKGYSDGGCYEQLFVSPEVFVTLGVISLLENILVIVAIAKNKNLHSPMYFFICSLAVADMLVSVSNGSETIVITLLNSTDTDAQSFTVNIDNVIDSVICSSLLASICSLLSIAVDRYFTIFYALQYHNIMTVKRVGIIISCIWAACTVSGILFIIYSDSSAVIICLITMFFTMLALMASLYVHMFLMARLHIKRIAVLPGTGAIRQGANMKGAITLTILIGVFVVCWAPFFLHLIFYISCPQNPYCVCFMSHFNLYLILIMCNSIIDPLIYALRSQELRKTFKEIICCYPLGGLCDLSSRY
Experimental: as §1

human MC3R = biological target: T3, human MC3R (human, UniProt P41968 1-323); test: competitive binding vs 125I-NDP-α-MSH on whole HEK293 cells overexpressing human MC3R
T3 construct: whole, on cells
T3 sequence (P41968 whole entry): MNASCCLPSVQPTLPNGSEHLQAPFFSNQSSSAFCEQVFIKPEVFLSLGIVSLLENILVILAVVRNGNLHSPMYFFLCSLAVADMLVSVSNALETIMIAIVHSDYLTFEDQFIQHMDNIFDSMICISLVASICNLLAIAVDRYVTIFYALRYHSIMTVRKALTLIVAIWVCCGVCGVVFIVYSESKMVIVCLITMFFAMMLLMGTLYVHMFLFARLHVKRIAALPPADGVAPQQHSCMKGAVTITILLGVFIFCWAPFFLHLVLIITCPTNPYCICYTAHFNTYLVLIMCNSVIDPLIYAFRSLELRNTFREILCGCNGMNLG
Experimental: as §1

human MC5R = biological target: T4, human MC5R (human, UniProt P33032 1-325); test: competitive binding vs 125I-NDP-α-MSH on whole HEK293 cells overexpressing human MC5R
T4 construct: whole, on cells
T4 sequence (P33032 whole entry): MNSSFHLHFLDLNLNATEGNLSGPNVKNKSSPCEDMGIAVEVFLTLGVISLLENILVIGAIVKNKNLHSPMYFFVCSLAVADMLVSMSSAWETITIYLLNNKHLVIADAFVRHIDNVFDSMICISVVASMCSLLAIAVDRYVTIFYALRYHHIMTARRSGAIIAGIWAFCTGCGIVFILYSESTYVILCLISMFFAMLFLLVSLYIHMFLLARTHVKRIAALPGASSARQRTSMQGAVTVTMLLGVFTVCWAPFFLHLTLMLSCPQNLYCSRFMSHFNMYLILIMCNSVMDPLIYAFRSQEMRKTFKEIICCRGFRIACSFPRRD
Experimental: as §1

T1 sequence (Q01726 whole entry): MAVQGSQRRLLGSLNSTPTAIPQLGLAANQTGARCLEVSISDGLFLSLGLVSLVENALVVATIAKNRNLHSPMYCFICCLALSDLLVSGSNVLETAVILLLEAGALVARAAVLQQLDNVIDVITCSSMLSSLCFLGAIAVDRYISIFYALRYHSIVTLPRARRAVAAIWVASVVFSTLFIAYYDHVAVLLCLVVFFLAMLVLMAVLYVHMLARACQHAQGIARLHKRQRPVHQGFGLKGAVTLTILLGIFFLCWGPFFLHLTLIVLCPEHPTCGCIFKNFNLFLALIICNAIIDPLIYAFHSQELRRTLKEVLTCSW

B1: fluorescein-MT-II conjugate (2) (peptide)
peptide: CXLDHFRWK
modifications: not fully specified; Cys 1 thiol joined by a disulfide to a 2-thioethyl carbonate linker carrying fluorescein; 6-aminohexanoic acid (6-Ahx) at 2; Nle at 3; D-Phe at 6; lactam cyclization between Asp 4 and Lys 9 side chains; C-terminal amide; no N-terminal acetyl on Nle (replaced by the Cys-6-Ahx spacer)
notes: also called fluorescein-MT-II (2); compound 2
[1]
  Ki: 172 nM

B2: camptothecin (CPT)-MT-II conjugate (1) (peptide)
peptide: CXLDHFRWK
modifications: not fully specified; Cys 1 thiol joined by a disulfide to a 2-thioethyl carbonate linker carrying camptothecin; 6-aminohexanoic acid (6-Ahx) at 2; Nle at 3; D-Phe at 6; lactam cyclization between Asp 4 and Lys 9 side chains; C-terminal amide; no N-terminal acetyl on Nle (replaced by the Cys-6-Ahx spacer)
notes: also called CPT-MT-II (1); camptothecin-MT-II (1)
[1]
  Ki: 57 nM
Human MC4R
  Ki: 173 nM
Human MC3R
  Ki: 300 nM
Human MC5R
  Ki: 194 nM
